According to patent US20240343803A1 (SHANDONG SIMCERE BIOPHARMACEUTICAL, published 2024):
Substitutions are numbered along the chain they refer to. Where two headings read alike, the source gives them in different places.

Assays:
[1] = biological target: T1, Fusion protein of extracellular domain of human TIGIT and His-tag (human TIGIT ECD-his) (human); assay: BIAcore; KD ratio to TIGIT-CHI-002
T1 chain: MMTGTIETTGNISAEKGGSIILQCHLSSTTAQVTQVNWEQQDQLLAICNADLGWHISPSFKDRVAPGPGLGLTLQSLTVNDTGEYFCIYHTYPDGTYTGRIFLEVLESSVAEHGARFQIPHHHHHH

[2] = biological target: T2, Full-length cynomolgus monkey TIGIT on CHO-K1 cells (CHO-K1 cynomolgus monkey TIGIT) (cynomolgus monkey); assay: cell binding, CHO-K1 cynomolgus monkey TIGIT
T2 construct: NCBI XP_015300911.1
Summary of the method: (§1)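 Binding was measured by flow cytometry after a 60-minute, 4° C incubation of the antibodies with 2×10⁵ CHO-K1 cells displaying full-length human or cynomolgus monkey TIGIT. Antibody titration: 12 points, threefold serial dilution from 80 nM, in 1% BSA-PBS.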

[3] = biological target: T3, Full-length human TIGIT on CHO-K1 cells (CHO-K1 human TIGIT) (human, UniProt Q495A1 22-244); assay: cell binding, CHO-K1 human TIGIT high expression strain
T3 construct: NCBI XP_024309156.1; the entry includes the signal peptide (limits not recoverable); The strain (high, medium, low) is named under assay; also called high expression strain 1D2; medium expression strain 2D10
T3 sequence: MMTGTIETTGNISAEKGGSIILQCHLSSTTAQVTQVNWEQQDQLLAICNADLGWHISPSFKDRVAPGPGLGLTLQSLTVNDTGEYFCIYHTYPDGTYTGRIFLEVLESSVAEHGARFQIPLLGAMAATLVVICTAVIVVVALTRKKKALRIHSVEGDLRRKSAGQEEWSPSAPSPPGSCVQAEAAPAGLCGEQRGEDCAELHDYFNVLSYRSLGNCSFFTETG
Summary of the method: as §1

[4] = biological target: T4, Fusion protein of extracellular domain of human TIGIT and mouse IgG2a Fc fragment (human TIGIT ECD-mFc) (human); assay: ELISA, human TIGIT ECD-mFc
T4 construct: The entry includes the signal peptide (limits not recoverable) and the mouse IgG2a Fc
T4 chain: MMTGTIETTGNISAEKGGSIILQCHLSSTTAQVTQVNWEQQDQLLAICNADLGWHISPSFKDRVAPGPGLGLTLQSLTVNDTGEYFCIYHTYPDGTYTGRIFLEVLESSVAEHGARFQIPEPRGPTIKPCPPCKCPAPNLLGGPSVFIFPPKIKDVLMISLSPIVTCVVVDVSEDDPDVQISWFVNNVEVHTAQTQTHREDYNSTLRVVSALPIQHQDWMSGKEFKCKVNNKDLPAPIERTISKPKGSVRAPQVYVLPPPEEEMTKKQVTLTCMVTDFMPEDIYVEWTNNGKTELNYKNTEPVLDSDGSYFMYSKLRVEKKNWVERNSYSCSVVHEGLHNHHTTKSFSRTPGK
Summary of the method: (§2)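 Plates blocked with 5% skim milk-PBS at 37° C for 2-4 h. Test antibodies applied as a 12-point 3-fold series from 13 nM for 1.5-2 h at 37° C. Read-out: HRP secondary (1:5000, 1 h, 37° C), TMB colour for 7-10 min at room temperature, acid stop, absorbance at OD450 nm.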

[5] = biological target: T1, Fusion protein of extracellular domain …; assay: BIAcore
[6] = biological target: T5, Fusion protein of extracellular domain of cynomolgus monkey TIGIT and mouse IgG2a Fc fragment (cynomolgus … (cynomolgus monkey)); assay: ELISA, cynomolgus monkey TIGIT ECD-mFc
T5 construct: The entry includes the signal peptide (limits not recoverable) and the mouse IgG2a Fc
Summary of the method: as §2
Target sequence in this assay (chain, as listed by the source limits assumed): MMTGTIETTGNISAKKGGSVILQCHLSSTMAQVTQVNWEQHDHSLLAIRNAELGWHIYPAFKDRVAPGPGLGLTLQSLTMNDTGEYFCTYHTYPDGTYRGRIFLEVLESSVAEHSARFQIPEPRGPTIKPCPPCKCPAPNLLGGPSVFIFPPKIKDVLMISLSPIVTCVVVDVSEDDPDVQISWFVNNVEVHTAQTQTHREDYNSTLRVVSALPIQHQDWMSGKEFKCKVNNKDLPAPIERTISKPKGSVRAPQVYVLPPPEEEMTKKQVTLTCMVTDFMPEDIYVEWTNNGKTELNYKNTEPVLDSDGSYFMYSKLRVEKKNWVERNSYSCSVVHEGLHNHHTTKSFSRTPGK

[7] = biological target: T6, Fusion protein of extracellular domain of human TIGIT and human IgG1 Fc fragment (human TIGIT ECD-hFc) (human); assay: blocking of TIGIT ECD-hFc binding to CHO-K1 CD155 cells
T6 construct: The entry includes the signal peptide (limits not recoverable) and the human IgG1 Fc
Summary of the method: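 IC50 values come from inhibition curves in a cell-based ELISA using CHO-K1 CD155 cells. Antibodies premixed for 0.5 h with human TIGIT ECD-hFc (working concentration 30 ng/mL) were added to the fixed, blocked cells for 1.5-2 h at 37° C. Bound TIGIT was then detected with HRP secondary antibody and TMB at OD450 nm.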

[8] = biological target: T1, Fusion protein of extracellular domain …; assay: BIAcore; reference itself
[9] = biological target: T4, Fusion protein of extracellular domain …; assay: ELISA, human TIGIT ECD-mFc
[10] = biological target: T3, Full-length human TIGIT on CHO-K1 cells …; assay: FACS; CHO-K1 human TIGIT medium expression strain
Summary of the method: (§3)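 Binding to CHO-K1 cells expressing full-length human or cynomolgus monkey TIGIT, measured by flow cytometry. Cells at 2×10⁵/50 μL in 1% BSA-PBS were mixed 1:1 with antibodies serially diluted 3-fold over 12 points from 80 nM and held at 4° C for 60 min. EC50 came from the binding curves.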

[11] = biological target: T4, Fusion protein of extracellular domain …; assay: FACS; blocking of TIGIT ECD-mFc binding to CHO-K1 CD155 cells
[12] = biological target: T3, Full-length human TIGIT on CHO-K1 cells …; assay: FACS; CHO-K1 human TIGIT high expression strain
Summary of the method: as §3

[13] = biological target: T4, Fusion protein of extracellular domain …; assay: FACS; blocking of TIGIT ECD-mFc binding to CHO-K1 CD112 cells
Procedure: The collected CHO-K1 CD112 cells were washed once with PBS (Hyclone, CAT #SH30256) and resuspended to 2×10⁵/40 μL with 1% BSA-PBS. The anti-TIGIT humanized antibodies were diluted to 600 nM with 1% BSA-PBS (diluted by 2.5-fold serial dilution for 12 concentration points). The TIGIT ECD-mFc was diluted with 1% BSA-PBS to 6 μg/mL. The 40 μL cells were then mixed with 40 μL diluted antibodies and 40 μL diluted TIGIT ECD-mFc, and then incubated at 4° C. for 60 minutes. […] The cell samples were washed twice with PBS, resuspended to 100 μL/well with 1% BSA-PBS and then analyzed by flow cytometry (BD, Canto II). […] (f) The binding activity of anti-TIGIT humanized antibodies to human PBMCs detected by FACS.

[14] = biological target: T3, Full-length human TIGIT on CHO-K1 cells …; assay: FACS; blocking of Bio-CD155-His binding to CHO-K1 human TIGIT cells
Summary of the method: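 Flow cytometry blocking assay in CHO-K1 human TIGIT cells (2×10⁵/40 μL in 1% BSA-PBS). Cells were mixed with equal volumes of antibody (12-point 3-fold dilution from 210 nM) and biotinylated CD155-His (diluted to 3 μg/mL), then held at 4° C for 60 min. Bound ligand was detected with APC-streptavidin (1:1700, 4° C, 40 min) on a BD Canto II. IC50 came from the inhibition curves.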

[15] = biological target: T1, Fusion protein of extracellular domain …; assay: BIAcore
[16] = biological target: T2, Full-length cynomolgus monkey TIGIT on …; assay: FACS; CHO-K1 cynomolgus monkey TIGIT
Summary of the method: as §3

[17] = biological target: T5, Fusion protein of extracellular domain …; assay: ELISA, cynomolgus monkey TIGIT ECD-mFc; remark: listed apart in the source
[18] = biological target: T7, TIGIT on human PBMCs stimulated by SEA (human, UniProt Q495A1 22-244); assay: FACS; binding to SEA-stimulated human PBMC
T7 construct: whole, on cells
T7 sequence (looked up): T3 sequence
Procedure: The fresh human PBMCs (AllCells, PB004-C) were adjusted to a density of 5×10⁵/mL, added with SEA (Toxin Technology, Inc., CAT: AT101) to 100 ng/ml, and cultured at 37° C. with 5% CO₂ for 3 days. The cells were collected 3 days later, washed once with PBS (Hyclone, CAT #SH30256), added with Fc Block (BD, 564220) and then incubated at 4° C. for 10 minutes. After washing twice with PBS, the PBMCs were resuspended to 2×10⁵/50 μL with 1% BSA-PBS. The humanized antibodies were diluted to 80 nM with 1% BSA-PBS (diluted by 3-fold serial dilution for 12 concentration points). The 50 μL cells were then mixed with 50 μL diluted antibodies, and then incubated at 4° C. for 60 minutes. […] After washing twice with PBS, the cell samples were resuspended with 1% BSA-PBS, 100 μL/well and then analyzed by flow cytometry (BD, Canto II).

[19] = biological target: T3, Full-length human TIGIT on CHO-K1 cells …; assay: FACS; CHO-K1 human TIGIT low expression strain
Summary of the method: as §3

T2 sequence (chain, as listed by the source limits assumed): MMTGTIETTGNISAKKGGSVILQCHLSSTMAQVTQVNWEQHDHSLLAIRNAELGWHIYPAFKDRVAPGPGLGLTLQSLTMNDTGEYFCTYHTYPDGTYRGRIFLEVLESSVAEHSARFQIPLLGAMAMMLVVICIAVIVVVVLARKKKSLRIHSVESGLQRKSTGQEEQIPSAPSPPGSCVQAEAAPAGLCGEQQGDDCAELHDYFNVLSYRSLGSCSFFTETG
T6 sequence (chain, as listed by the source limits assumed): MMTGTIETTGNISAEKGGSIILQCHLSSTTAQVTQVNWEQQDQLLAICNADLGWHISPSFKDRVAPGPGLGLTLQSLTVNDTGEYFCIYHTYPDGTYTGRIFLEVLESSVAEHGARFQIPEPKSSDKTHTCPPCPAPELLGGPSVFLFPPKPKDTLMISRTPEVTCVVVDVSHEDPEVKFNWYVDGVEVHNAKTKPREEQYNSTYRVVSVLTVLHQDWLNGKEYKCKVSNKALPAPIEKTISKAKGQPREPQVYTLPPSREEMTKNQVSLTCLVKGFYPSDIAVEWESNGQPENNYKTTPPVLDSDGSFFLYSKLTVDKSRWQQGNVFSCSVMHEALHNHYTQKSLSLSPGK

B1: TIGIT-002-H2L3 (antibody, V domains shown)
VH: EVQLQESGPGLVKPSETLSLTCAVSGYSITSDSWNWIRQPPGKKLEWIGYISYSGNTYYNPSLKSRVTISRDTSKNQFSLKLSSVTAADTAVYYCARLDFSNYGGAVDYWGQGTTVTVSS
VL: DIVMTQSPDSLAVSLGERATINCKASQNVRTAVAWYQQKPGQSPKLMIYSASYRYTGVPDRFSGSGSGTDFTLTISSLQAEDVAVYYCQQYYTTPWTFGGGTKVEIK
notes: Humanized anti-TIGIT antibody
[1]
  Fold change vs chimeric antibodies (KD): 6.3 fold
[2]
  EC50: 0.15 nM
[3]
  EC50: 0.0278 nM
[4]
  EC50: 0.0159 nM
[5]
  Kd: 0.266 nM
  koff: 0.00107 s⁻¹
  kon: 4.03e+06 M⁻¹ s⁻¹
[6]
  EC50: 0.0337 nM
[7]
  IC50: 0.54 nM

B2: TIGIT-002-H3L3 (antibody, V domains shown)
VH: B1 VH with I48M, V67I
VL: B1 VL
notes: Humanized anti-TIGIT antibody
[1]
  Fold change vs chimeric antibodies (KD): 4.47 fold
[2]
  EC50: 0.0919 nM
[3]
  EC50: 0.0361 nM
[4]
  EC50: 0.0173 nM
[5]
  Kd: 0.188 nM
  koff: 0.000852 s⁻¹
  kon: 4.52e+06 M⁻¹ s⁻¹
[6]
  EC50: 0.022 nM
[7]
  IC50: 0.339 nM

B3: TIGIT-002-H1L3 (antibody, V domains shown)
VH: B1 VH with K44G
VL: B1 VL
notes: Humanized anti-TIGIT antibody
[1]
  Fold change vs chimeric antibodies (KD): 6.44 fold
[2]
  EC50: 0.143 nM
[3]
  EC50: 0.0253 nM
[4]
  EC50: 0.0157 nM
[5]
  Kd: 0.271 nM
  koff: 0.000973 s⁻¹
  kon: 3.59e+06 M⁻¹ s⁻¹
[6]
  EC50: 0.0511 nM
[7]
  IC50: 0.395 nM

B4: TIGIT-CHI-002 (antibody, V domains shown)
VH: EVQLQESGPGLAKPSQTLSLACSVTGYSITSDSWNWIRKFPGNKLEYMGYISYSGNTYYNPSLKSRISITRDTSKNQFYLQLNSVTTEDTATYYCARLDFSNYGGAVDYWGQGTSVTVSS
VL: DIVMTQSHTFMSTSVGDRVSITCKASQNVRTAVAWYQQKPGQSPKLMIYSASYRYTGVPDRFTGSGSGTDFTFTISSVQAEDLAVYYCQQYYTTPWTFGGGAKLEIQ
notes: Human-mouse chimeric antibody
[8]
  Fold change vs chimeric antibodies (KD): 1 fold
[2]
  EC50: 0.0372 nM
[3]
  EC50: 0.0218 nM
[4]
  EC50: 0.0161 nM
[5]
  Kd: 0.0421 nM
  koff: 0.0003 s⁻¹
  kon: 7.13e+06 M⁻¹ s⁻¹
[6]
  EC50: 0.02 nM
[7]
  IC50: 0.564 nM

B5: RG6058-hIgG1 (antibody, V domains shown)
VH: EVQLQQSGPGLVKPSQTLSLTCAISGDSVSSNSAAWNWIRQSPSRGLEWLGKTYYRFKWYSDYAVSVKGRITINPDTSKNQFSLQLNSVTPEDTAVFYCTRESTTYDLLAGPFDYWGQGTLVTVSS
VL: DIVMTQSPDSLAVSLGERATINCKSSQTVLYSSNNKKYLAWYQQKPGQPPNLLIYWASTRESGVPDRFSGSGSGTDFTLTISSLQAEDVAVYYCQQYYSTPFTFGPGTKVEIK
notes: Control anti-TIGIT antibody, human IgG1; also called Roche RG6058
[9]
  EC50: 0.0393 nM
[10]
  EC50: 0.652 nM
[11]
  IC50: 0.584 nM
[12]
  EC50: 0.794 nM
[13]
  IC50: 6 nM
[14]
  IC50: 0.334 nM
[15]
  Kd: 0.156 nM
  koff: 0.000135 s⁻¹
  kon: 866000 M⁻¹ s⁻¹
[16]
  EC50: 2.29 nM
[17]
  EC50: 0.0486 nM
[18]
  EC50: 0.285 nM
[19]
  EC50: 0.481 nM

B6: TIGIT-CHI-005 (antibody, V domains shown)
VH: QVQLQQSGAELVRPGTSVKVSCKASGYAFTNYLIEWVKQRPGQGLEWIGVINPGSGGTNYKEKFKGKATLTADKSSSTAYMQLSSLTSEDSAVYFCARGEYFFFDYWGQGTTLTVSS
VL: DIVMTQSHKFMSTSVGDRVSITCKASQHVSNGVAWYQHKPGQSPKLLIYSASYRYTGVPDRFTGTGSGTDFTFTISSVQAEDLAVYYCQQHYNTPHTFGGGTKLEIK
notes: Human-mouse chimeric antibody
[8]
  Fold change vs chimeric antibodies (KD): 1 fold
[2]
  EC50: 0.0265 nM
[3]
  EC50: 0.026 nM
[4]
  EC50: 0.019 nM
[5]
  Kd: 0.0276 nM
  koff: 0.000113 s⁻¹
  kon: 4.76e+06 M⁻¹ s⁻¹
[6]
  EC50: 0.0165 nM
[7]
  IC50: 0.36 nM
